The record followed here is patent publication US20220259330A1 (SUNSHINE GUOJIAN PHARMACEUTICAL SHANGHAI, published 2022).

In one experiment the target is T1, CD40-ECD-His (human, UniProt P25942 21-193).
T1 construct: extracellular domain; Bought; also called recombinant protein of the extracellular segment of human CD40 with a polyhistidine tag (Sino Biological 10774-H08H); not shown: polyhistidine tag
Nature of the experiment: ELISA, plate coated with CD40-ECD-His.

In the next experiment the target is T2, PD1-ECD-His (human, UniProt Q15116 25-170).
T2 construct: extracellular domain; Bought; also called recombinant protein of the extracellular segment of human PD-1 with a polyhistidine tag (Sino Biological 10377-H08H); not shown: polyhistidine tag
T2 sequence (Q15116 25-170): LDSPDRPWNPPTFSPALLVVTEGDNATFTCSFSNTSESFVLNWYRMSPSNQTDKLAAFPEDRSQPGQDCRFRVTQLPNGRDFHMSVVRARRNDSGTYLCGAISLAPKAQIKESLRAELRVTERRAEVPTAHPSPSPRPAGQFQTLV
As to the kind of experiment: ELISA, plate coated with PD1-ECD-His.

For a further experiment, the target named is T3, CD47-ECD-His (human, UniProt Q08722 19-139).
T3 construct: extracellular domain; Bought; also called recombinant protein of the extracellular segment of human CD47 with a polyhistidine tag (Sino Biological 12283-H08H); not shown: polyhistidine tag
T3 sequence (Q08722 19-139 limits assumed): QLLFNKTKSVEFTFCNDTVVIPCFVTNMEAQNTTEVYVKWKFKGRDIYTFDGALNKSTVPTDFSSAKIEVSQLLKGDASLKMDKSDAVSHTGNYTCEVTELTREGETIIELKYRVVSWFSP
As to the kind of experiment: ELISA, plate coated with CD47-ECD-His. Background: ELISA stands for enzyme-linked immunosorbent assay.

In another experiment the target is T4, HER2-ECD-His (human, UniProt P04626 23-652).
T4 construct: extracellular domain; Bought; also called recombinant protein of the extracellular segment of human Her-2 with a polyhistidine tag (ACROBiosystems HE2-H5225); not shown: polyhistidine tag
As to the kind of experiment: ELISA, plate coated with HER2-ECD-His.

The target in experiment [1] is T5, PD1-His (human, UniProt Q15116 25-170).
T5 construct: extracellular domain; In-house protein; also called extracellular domain protein of human PD-1 with a 6*His tag
T5 sequence (Q15116 other isoform, or with tags, fused parts or gaps): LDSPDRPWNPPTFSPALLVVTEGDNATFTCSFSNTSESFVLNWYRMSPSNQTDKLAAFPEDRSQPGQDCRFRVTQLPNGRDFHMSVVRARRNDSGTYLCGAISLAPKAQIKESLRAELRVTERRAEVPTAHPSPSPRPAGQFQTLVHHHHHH
Nature of the experiment: ELISA, plate coated with PD1-His.

Experiment [2] concerns the target TGF-β1 (Sino Biological, Cat. No. 10804-HNAC) (UniProt P01137 279-390). As to the kind of experiment: bridging ELISA: TGF-β1 coated, antibody titrated, biotinylated human PD-1 and streptavidin-HRP for detection.
Experiment [3] has as its target T6, VEGF165-His (human, UniProt P15692-4 27-191).
T6 construct: also called Human VEGF165 with a 6*His tag
T6 sequence: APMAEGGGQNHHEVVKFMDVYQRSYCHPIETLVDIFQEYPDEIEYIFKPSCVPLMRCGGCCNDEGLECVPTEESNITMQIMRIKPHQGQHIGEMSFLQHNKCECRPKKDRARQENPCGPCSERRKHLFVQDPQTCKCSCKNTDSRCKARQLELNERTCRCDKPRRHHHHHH
As to the kind of experiment: ELISA, VEGF165-His coated at 10 ng/well.

Experiment [4] has as its target T7, biotinylated human PD-1 extracellular recombinant protein (Sino Biological, Cat. No. 10377-H08H-B) (human, UniProt Q15116 25-170, biotinylated).
T7 construct: extracellular domain; Bought; detection reagent in the bridging ELISAs
As to the kind of experiment: bridging ELISA: VEGF165 coated, antibody titrated, biotinylated human PD-1 at 200 ng/ml and streptavidin-HRP for detection.

In experiment [5] the target is T6, VEGF165-His. Nature of the experiment: SPR, Biacore 8K, antibody captured on Protein A/G chip, VEGF165-His injected. (In SPR one partner is held on a chip, and binding of the other changes the refractive index at the surface.)
Experiment [6] concerns the target T5, PD1-His. Nature of the experiment: SPR, Biacore 8K, antibody captured on Protein A/G chip, PD1-His injected.
Experiment [7] has as its target T8, recombinant VEGF165 (Acrobiosystems, Cat. No. VE5-H4210) (UniProt P15692-4 27-191).
T8 construct: Bought; construct not described
As to the kind of experiment: bridging ELISA: VEGF165 coated, antibody titrated, biotinylated human PD-1 at 200 ng/ml and streptavidin-HRP for detection.

In a further experiment the target is T9, CD137-ECD-Fc (human, UniProt Q07011 24-186).
T9 construct: extracellular domain; Bought; also called recombinant protein of the extracellular segment of human CD137 with Fc tags (Sino Biological 10041-H02H); not shown: Fc tag
T9 sequence (Q07011 24-186): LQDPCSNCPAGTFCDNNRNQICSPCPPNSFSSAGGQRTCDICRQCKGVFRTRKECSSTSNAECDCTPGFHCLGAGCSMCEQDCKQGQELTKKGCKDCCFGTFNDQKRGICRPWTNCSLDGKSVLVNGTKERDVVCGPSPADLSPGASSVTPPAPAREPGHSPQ
As to the kind of experiment: ELISA, plate coated with CD137-ECD-Fc.

Several values for one entry are separate records, joined by “and”; a condition that tells them apart may be missing. Equal entries are not always repeated.

T1 sequence (P25942 21-193): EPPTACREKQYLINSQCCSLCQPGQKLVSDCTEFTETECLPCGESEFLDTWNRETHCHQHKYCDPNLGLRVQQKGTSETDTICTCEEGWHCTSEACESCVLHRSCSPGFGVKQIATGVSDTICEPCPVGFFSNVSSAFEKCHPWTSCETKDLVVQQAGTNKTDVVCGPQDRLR
Chain of TGF-β1 (Sino Biological, Cat. No. 10804-HNAC) (P01137 279-390 limits assumed): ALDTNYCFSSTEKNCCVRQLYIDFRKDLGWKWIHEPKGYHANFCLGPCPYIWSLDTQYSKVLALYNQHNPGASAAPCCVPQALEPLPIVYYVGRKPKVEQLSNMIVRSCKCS
T7 sequence (Q15116 25-170): as the sequence (Q15116 25-170) above

B1: 40-Fab-609-IgG4 (bispecific antibody)
heavy: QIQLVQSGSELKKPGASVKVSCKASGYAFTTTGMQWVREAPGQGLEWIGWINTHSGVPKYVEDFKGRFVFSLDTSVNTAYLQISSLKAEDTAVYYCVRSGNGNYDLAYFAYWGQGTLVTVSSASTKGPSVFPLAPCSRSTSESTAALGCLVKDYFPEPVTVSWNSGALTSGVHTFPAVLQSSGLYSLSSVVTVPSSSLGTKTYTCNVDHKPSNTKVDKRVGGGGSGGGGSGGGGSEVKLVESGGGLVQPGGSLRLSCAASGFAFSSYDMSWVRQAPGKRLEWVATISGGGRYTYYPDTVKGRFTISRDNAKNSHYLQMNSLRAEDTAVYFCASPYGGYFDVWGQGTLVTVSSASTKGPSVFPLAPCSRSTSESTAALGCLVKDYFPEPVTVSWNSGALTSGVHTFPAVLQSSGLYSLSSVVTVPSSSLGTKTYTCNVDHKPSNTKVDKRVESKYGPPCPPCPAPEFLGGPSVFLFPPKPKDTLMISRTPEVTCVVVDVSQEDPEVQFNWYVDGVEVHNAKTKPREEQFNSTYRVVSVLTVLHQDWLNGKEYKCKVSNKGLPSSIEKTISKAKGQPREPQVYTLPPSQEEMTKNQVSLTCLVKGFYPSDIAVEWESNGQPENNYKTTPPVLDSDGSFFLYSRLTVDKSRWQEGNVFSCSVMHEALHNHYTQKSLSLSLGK
light: EIVLTQSPATLSLSPGERATLSCRASQSISDYLHWYQQKPGQSPRLLIKYASHSISGIPARFSGSGSGSDFTLTISSLEPEDFAVYYCQHGHSFPWTFGQGTKVEIKRTVAAPSVFIFPPSDEQLKSGTASVVCLLNNFYPREAKVQWKVDNALQSGNSQESVTEQDSKDSTYSLSSTLTLSKADYEKHKVYACEVTHQGLSSPVTKSFNRGEC
As for B1, the 50% effective concentration (EC50) (in general, the concentration that produces a half-maximal response) with CD40-ECD-His was determined as 95.6 pM; with PD1-ECD-His, 1020 pM.

B2: 609-Fab-40-IgG4 (bispecific antibody)
heavy: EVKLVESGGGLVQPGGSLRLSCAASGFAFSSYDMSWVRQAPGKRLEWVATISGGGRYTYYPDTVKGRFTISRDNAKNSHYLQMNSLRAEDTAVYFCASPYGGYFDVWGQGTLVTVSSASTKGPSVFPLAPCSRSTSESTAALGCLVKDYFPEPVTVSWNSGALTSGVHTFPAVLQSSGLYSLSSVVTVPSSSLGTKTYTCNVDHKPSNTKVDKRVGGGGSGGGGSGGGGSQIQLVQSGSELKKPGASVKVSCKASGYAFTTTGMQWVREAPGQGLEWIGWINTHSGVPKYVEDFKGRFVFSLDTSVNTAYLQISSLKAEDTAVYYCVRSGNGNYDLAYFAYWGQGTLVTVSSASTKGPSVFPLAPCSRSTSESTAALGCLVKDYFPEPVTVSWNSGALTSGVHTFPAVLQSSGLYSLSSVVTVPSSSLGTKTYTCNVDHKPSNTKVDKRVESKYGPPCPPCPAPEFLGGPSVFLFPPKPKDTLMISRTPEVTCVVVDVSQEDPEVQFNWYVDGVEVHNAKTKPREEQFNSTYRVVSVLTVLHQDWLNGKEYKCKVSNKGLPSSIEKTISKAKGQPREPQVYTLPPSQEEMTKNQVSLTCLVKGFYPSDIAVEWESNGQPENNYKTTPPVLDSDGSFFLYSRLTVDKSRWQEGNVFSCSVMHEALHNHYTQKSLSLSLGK
light: EIVLTQSPATLSLSPGERATLSCRASQSISDYLHWYQQKPGQSPRLLIKYASHSISGIPARFSGSGSGSDFTLTISSLEPEDFAVYYCQHGHSFPWTFGQGTKVEIKRTVAAPSVFIFPPSDEQLKSGTASVVCLLNNFYPREAKVQWKVDNALQSGNSQESVTEQDSKDSTYSLSSTLTLSKADYEKHKVYACEVTHQGLSSPVTKSFNRGEC
Turning to B2, the EC50 with CD40-ECD-His came out at 105 pM; with PD1-ECD-His it was 172 pM.

B3: CD47B-Fab-19H6-IgG1 (bispecific antibody)
heavy: not shown
light: DVVMTQSPLSLPVTLGQPASISCRSSQSLVHSNGNTYLHWYQQRPGQSPRLLIYKVSNRFSGVPDRFSGSGSGTDFTLKISRVEAEDVGVYFCSQSTHIPWTFGQGTKVEIKRTVAAPSVFIFPPSDEQLKSGTASVVCLLNNFYPREAKVQWKVDNALQSGNSQESVTEQDSKDSTYSLSSTLTLSKADYEKHKVYACEVTHQGLSSPVTKSFNRGEC
For the molecule B3, the EC50 with CD47-ECD-His came out at 78.2 pM; with HER2-ECD-His, 106 pM.

B4: 19H6-Fab-CD47B-IgG1 (bispecific antibody)
heavy: not shown
light: DVVMTQSPLSLPVTLGQPASISCRSSQSLVHSNGNTYLHWYQQRPGQSPRLLIYKVSNRFSGVPDRFSGSGSGTDFTLKISRVEAEDVGVYFCSQSTHIPWTFGQGTKVEIKRTVAAPSVFIFPPSDEQLKSGTASVVCLLNNFYPREAKVQWKVDNALQSGNSQESVTEQDSKDSTYSLSSTLTLSKADYEKHKVYACEVTHQGLSSPVTKSFNRGEC
B4: the EC50 with CD47-ECD-His was determined as 194 pM; in the experiment with HER2-ECD-His, 154 pM.

B5: Anti-CD40-Hu (antibody, human IgG4 S228P, kappa, V domains shown)
VH: QIQLVQSGSELKKPGASVKVSCKASGYAFTTTGMQWVREAPGQGLEWIGWINTHSGVPKYVEDFKGRFVFSLDTSVNTAYLQISSLKAEDTAVYYCVRSGNGNYDLAYFAYWGQGTLVTVSS
VL: EIVLTQSPATLSLSPGERATLSCRASQSISDYLHWYQQKPGQSPRLLIKYASHSISGIPARFSGSGSGSDFTLTISSLEPEDFAVYYCQHGHSFPWTFGQGTKVEIKR
notes: Humanized anti-human CD40, IgG4 (S228P), kappa; also called humanized MAb2.220
In the experiment with CD40-ECD-His, B5 came in with an EC50 of 110 pM. Besides, the binding result with PD1-ECD-His is listed as “no binding”.

B6: Anti-CD40-Hu-HC+609-LC (antibody, human IgG4 S228P, kappa, V domains shown)
VH: QIQLVQSGSELKKPGASVKVSCKASGYAFTTTGMQWVREAPGQGLEWIGWINTHSGVPKYVEDFKGRFVFSLDTSVNTAYLQISSLKAEDTAVYYCVRSGNGNYDLAYFAYWGQGTLVTVSS
VL: EIVLTQSPATLSLSPGERATLSCRASQSISNFLHWYQQKPGQAPRLLIKYASQSISGIPARFSGSGSGTDFTLTISSLEPEDFAVYFCQQSNSWPHTFGQGTKVEIKR
notes: Hybrid antibody
Turning to B6, the binding result with CD40-ECD-His and in the experiment with PD1-ECD-His was “no binding” in each case.

B7: 14-Hu (antibody, human IgG4 S228P, kappa, V domains shown)
VH: QVQLVQSGAEVKKPGASVKVSCKASGYSFTGYTMNWVRQAPGQGLEWIGLINPYNGDTSYNQKFKGRATVTVDKSTSTAYMELSSLRSEDTAVYYCARWRYTMDYWGQGTLVTVSS
VL: DIVLTQSPASLAVSPGQRATITCRASESVDNYGNSFMNWYQQKPGQPPKPLIYFASNLESGVPARFSGSGSRTDFTLTINPVEADDTANYYCQQNNEAPPTFGQGTKVEIKR
notes: Humanized anti-PD-1, IgG4 (S228P), kappa; also called 14-Hu-HC+14-Hu-LC
On to B7, for which the EC50 with PD1-His [1] is 392 pM and 432 pM. Further, the binding result in [2] was “no binding”.

B8: 20-Hu-HC+601-LC (antibody, human IgG4 S228P, kappa, V domains shown)
VH: EVQLVESGGGLVQPGGSLRLSCAASGFVFSNYDMSWVRQAPGKRLEWVATISGGGGYTYYSDSVKGRFTISRDNAKNSLYLQMNSLRAEDTAVYYCASPYGHYGFEYWGQGTLVTVSS
VL: DIQMTQSPSSLSASVGDRVTITCSASQDISNYLNWYQQKPGKAPKVLIYFTSSLHSGVPSRFSGSGSGTDFTLTISSLQPEDFATYYCQQYSTVPWTFGQGTKVEIKR
notes: Hybrid antibody
Regarding B8, the binding result with VEGF165-His [3] is “no binding”. Besides, the EC50 with PD1-His [1] is 625 pM and 975 pM.

B9: 601 (antibody, human IgG1, kappa, V domains shown)
VH: EVQLVESGGGLVQPGGSLRLSCAASGYTFTNYGMNWVRQAPGKGLEWVGWINTYTGEPTYAADFKRRFTFSLDTSKSTAYLQMNSLRAEDTAVYYCAKYPHYYGSSHWYFDVWGQGTLVTVSS
VL: DIQMTQSPSSLSASVGDRVTITCSASQDISNYLNWYQQKPGKAPKVLIYFTSSLHSGVPSRFSGSGSGTDFTLTISSLQPEDFATYYCQQYSTVPWTFGQGTKVEIKR
notes: Anti-VEGF, IgG1, kappa; also called Bevacizumab
B9: in experiment [4], the binding result is recorded as “no binding”.

B10: 20-Hu (antibody, human IgG4 S228P, kappa, V domains shown)
VH: EVQLVESGGGLVQPGGSLRLSCAASGFVFSNYDMSWVRQAPGKRLEWVATISGGGGYTYYSDSVKGRFTISRDNAKNSLYLQMNSLRAEDTAVYYCASPYGHYGFEYWGQGTLVTVSS
VL: DIQMTQSPSSLSASVGDRVTITCSASQGISNFLSWYQQKPGKTVKLLIYYTSSLHSGVPSRFSGSGSGTDYTFTISSLQPEDIATYYCQQYSNLPWTFGQGTKVEIKR
notes: Humanized anti-human PD-1, IgG4 (S228P), kappa; also called 20-Humanized; 20-Hu-HC+20-Hu-LC
Take B10: the binding result with VEGF165-His [3] is given as “no binding”. Besides, in the experiment with PD1-His [1], the EC50 was 206 pM.

B11: 601-HC+601-LC-V94L (antibody, human IgG1, kappa, V domains shown)
VH: EVQLVESGGGLVQPGGSLRLSCAASGYTFTNYGMNWVRQAPGKGLEWVGWINTYTGEPTYAADFKRRFTFSLDTSKSTAYLQMNSLRAEDTAVYYCAKYPHYYGSSHWYFDVWGQGTLVTVSS
VL: DIQMTQSPSSLSASVGDRVTITCSASQDISNYLNWYQQKPGKAPKVLIYFTSSLHSGVPSRFSGSGSGTDFTLTISSLQPEDFATYYCQQYSTLPWTFGQGTKVEIKR
Turning to B11, in the experiment with VEGF165-His [5], the Kd (as a rule, a measure of binding affinity in units of concentration) was 7.46 pM; the koff (in general, a measure of how fast the partners let go of each other) is 2.91e-05 s⁻¹; the kon (as a rule, the rate constant with which the complex forms) stood at 3.9e+06 M⁻¹ s⁻¹.

B12: 20-Hu-HC+601-LC-V94L (antibody, human IgG4 S228P, kappa, V domains shown)
VH: EVQLVESGGGLVQPGGSLRLSCAASGFVFSNYDMSWVRQAPGKRLEWVATISGGGGYTYYSDSVKGRFTISRDNAKNSLYLQMNSLRAEDTAVYYCASPYGHYGFEYWGQGTLVTVSS
VL: DIQMTQSPSSLSASVGDRVTITCSASQDISNYLNWYQQKPGKAPKVLIYFTSSLHSGVPSRFSGSGSGTDFTLTISSLQPEDFATYYCQQYSTLPWTFGQGTKVEIKR
Turning to B12, the EC50 in the experiment with PD1-His [1] is 308 pM and 331 pM. In the experiment with PD1-His [6], this molecule yielded a dissociation constant Kd of 1590 pM, a koff of 4.54e-05 s⁻¹ and a kon of 28600 M⁻¹ s⁻¹. For the same molecule, the binding result in experiment [7] was “no binding”.

B13: 19H6-Hu (antibody, human IgG1, kappa, V domains shown)
VH: QVQLVQSGAEVKKPGASVKVSCKGSGYTFTDYAIHWVRQAPGQSLEWIGVFSIYYENINYNQKFKGRATMTVDKSTSTAYMELRSLRSDDTAVYYCARRDGGTINYWGQGTLVTVSS
VL: DVVMTQSPLSLPVTLGQPASISCRSSQSLVHSNGNTYLHWYQQRPGQSPRLLIYKVSNRFSGVPDRFSGSGSGTDFTLKISRVEAEDVGVYFCSQSTHIPWTFGQGTKVEIKR
notes: Humanized anti-human HER2, IgG1, kappa; also called 19H6-Hu-HC+19H6-Hu-LC
With B13, the binding result with CD137-ECD-Fc and with CD47-ECD-His was “no binding” in each case. In the experiment with HER2-ECD-His, the EC50 is 77 pM and 126 pM and 122 pM and 193 pM.
